Source: patent US11224246B2, “Mineral fortification process and its uses” (SOCIETE DES PRODUITS NESTLE S.A., priority 2012, dated 2022)

Columns and labels:
Assay type in all cases: physicochemical
[1] = Zinc sulphate addition to sodium caseinate solution, precipitation of proteins; details: 2% protein solution, pH 6.8
Experimental: We have compared the effect of zinc sulphate addition on the precipitation of proteins in sodium caseinate using our technology.
Upon addition of zinc sulphate to sodium caseinate solution (2% protein), not more than 5 mM of zinc could be added without gross precipitation of proteins at pH 6.8.
However, as exemplified with the concept of complex II, we could add 18 mM of zinc to the sodium caseinate (2% protein solution) without any precipitation of proteins.

[2] = Copper sulphate addition to sodium caseinate solution, precipitation; details: 2% protein
Experimental: The sodium caseinate solution (2% protein) precipitated upon addition of 1.5 mM copper as copper sulphate. Again using the concept of complex II, we could add 4 mM without noticeable precipitation at pH 6.8.

[3] = Effect of phosphorus addition on soluble protein, soluble iron, turbidity and appearance of sodium caseinate solution on iron addition; details: without the phosphorus, FIGS. 6 and 7
Experimental: FIGS. 3 to 5 illustrate the effect of adding phosphorus to the complex.
FIG. 5 illustrates the advantages of the invention, wherein an increase in turbidity indicates a reduction in stability due to the formation of small particulates/precipitates.
FIGS. 6 and 7 visually illustrate how addition of phosphorus improves the solubility and stability of the complex. Even when the iron is loaded up to 25 mM, the composition remains in solution. Without the phosphorus, the protein and/or iron precipitates even at lower levels of iron (5-10 mM).

## sodium caseinate
[1]
  Zinc that could be added without precipitation of proteins: not more than 5 mM
[2]
  Copper addition at which the solution precipitated: 1.5 mM
[3]
  Iron level at which protein and/or iron precipitates: 5 to 10 mM
